The text below walks through data of the DeepSol protein solubility set.

A short description of the data set: soluble on expression in E. coli; label from the status in PepcDB or PDB records.
As for “SNANEAQQYYLDADEAEAWIGEQELYVISDEIPKDEEGAIVMLKRHLRQQRAVEDYGRNIKQLASRAQGLLSAGHPEGEQIIRLQGQVDKHYAGLKDVACERKRKLENMYHLFQLKRETDDLEQWISEKELVASSPEMGQDFDHVTLLRDKFRDFARETGAIGQERVDNVNAFIERLIDAGHSEAATIAEWKDGLNEMWADLLELIDTRMQLLAASYDLHRYFYTGAEILGLIDEKHRELPEDVGLDASTAESFHRVHTAFERDVHLLGVQVQQFQDVATRLQTAYAGEKAEAIQNKEQEVSAAWQALLDACAGRRTQLVDTADKF”, the “soluble on expression in E. coli” value is “soluble”. To “SKNPEEAAEGKQRIHLRPGSLRGAAPAKLHLLPCDVLVSRPAPVDRFFTPAVRHDADGLQASFRGRGLRGEEVAVPPGFAGFVMVTEEKGEGLIGKLNFSGDAEDKADEAQEPLERDFDRLIGATGSFSHFTLWGLETVPGPDAKVHRALGWPSLAAAIHAQVPED” belongs “soluble”; to “VRILATVAATAAAVAALITPAHADGPLGVKGDTLTLPLADAITALPVAEESRAGYQRSAFKHWVDADKDGCNTRSEVLKAEAVVAPEQGTRCKLSGGQWYSAYSNTYVNSASALDLDHLVPLAEGWDSGASAWTAKEREAYANDLGDDRSLIAVTAATNRSKADQDPAEWLPPYEPYHCQYLTDWIATKLRWQLTVDQAERDTLTQATTSCPNLPVEVTLAR”, “soluble”; to “MGSDKIHHHHHHMTKKITTHLESGLFKGKPRQKTVQHRNATTTPEMRQFIQQSDYSVSQLSKILNISEATVRKWRKRDSIDNTPNTPHKLNTTLSPMEEYVMLGLRYQLKMPLDRLLKVTQEFINPNVSRSGLARCLKRFGVSKLDEFDSPFVPEKFFNQLPITQGADIQTYTVNPKTLADTLSLPSPDPDNVVQVVSLSIPPQLTKQQAYSVLLGVDFKSDWVYLDIYQDSHTQASNRYITHVLKHGPFHLRKLLVRNYHTFLARFPGASQPAAVSTSTIDAAGSQHQITEPQLSNGDSYEPIQ”, “not soluble”. As to “MGSDKIHHHHHHMEASFDIALASAYVNAHMYSQGLHVSRVAAKDSDFQGVSEKRYEIKDPKEMSRLIKKIGALFGSPLVRIVKLNPEWSYEHAPGDGRGYKYGEPVDIPEHWQYGIIMGIPLSWETREGAPSFFHTFEGYGNASMHCARMAEFVKKLGYPARENSPHARYEYIMPPHMVAAGIGEQGRLGVVVTPEFGPNFRPSMVVTNMPLEPDKPIDVGIRKFCMNCKICADQCPSGSISFDGPKEINGRGYDGWQINASTCHNFWMSVPNGGCRVCLAVCPFSKESNWLHTTARDIAVRERTGITASTLTWMEKAFYGVNTPEHYHYKEGTRQFDYLVGEKPWFFESKDFLKEN”, the “soluble on expression in E. coli” value is on record as “not soluble”.

On to “RAGLSKLPDLKDAEAVQKFFLEEIQLGEELLAQGDYEKGVDHLTNAIAVCGQPQQLLQVLQQTLPPPVFQMLLTKLPTISQRIVSAQSLGEDDVE”, for which the “soluble on expression in E. coli” value is recorded as “soluble”. Take “MAHHHHHHMPINPEYIPLPKSKEMFAIASWRDSPGLNATPAAHPGVSGSPHLASLDALRNGKGMAGMHAAATTTTTTTNTVTAAGGSLLPPAVQPAEDSKDAAKSKAPLTVAAGKKKKRKPASGATTSTASVAGSGVRSDDVDDFFVHILLPSCVSMQTLEFELQAQTTPLKSIEVGLPKVLFPRKPVGGAGGDASPPTTTALAPAVASAKIVSSPSCAPAVNPTNNELSLPLMRLPPADLPEPAPSESSCAAPPSASAAAAAHVNGDGTASAAAASGEHHGGEYQVSLLFAEKAEAEKTVTFVQRRWPTAAVSLASRSRSVLNATLVLKGMPNQAKTETVLTEMQNLPHTPSYVRLLRSERGVFKGVVFVKYANCEIAEECKLRLEKFVLGSRPLKVEFKKKSTAAASVSAAVIESKRSLQELVRELRVSAEHEGFHLSRSDVAKEALKVLKQLCQSYGLLFDMNDQQVTVRRVLGSNGIGSEKPSPALRPQSMAPAWAPATPAPLRPMDFKGISHWKDIRSQASTLGIMRPLGPEDGKPAFSAGRGRPL”: the “soluble on expression in E. coli” value is “not soluble”. Consider “MARYYVLDLSEDFRRELRETLAEMVNPVEVHVFLSKSGCETCEDTLRLMKLFEEESPTRNGGKLLKLNVYYRESDSDKFSEFKVERVPTVAFLGGEVRWTGIPAGEEIRALVEVIMRLSEDESGLEDATKEALKSLKGRVHIETIITPSCPYCPYAVLLAHMFAYEAWKQGNPVILSEAVEAYENPDIADKYGVMSVPSIAINGYLVFVGVPYEEDFLDYVKSAAEGRLTVKGPIRAGEAEEL”, for which the “soluble on expression in E. coli” value is “soluble”. To “AIAAMGRTTQFTLDEVAKHADKDSCWLVIDGKVYAVEKFLNEHPGGEDVLLETAGRDATREFEDVGHSKSAREQLKEFYIGDVREPTAEELAAKRAVQASAAAERRDGDGVRANGLGKERLFAGGAFGAEPLSGGSSTWTLLKRLFVPVCIAVLVYLVREYSKQVQTGG” belongs “soluble”; to “MSLHRISDRFPVHVVVWPVKVQGEGSGEEVANAIRGFNALKPGGDIARPDVLIVARGGGSLEDLWSFNDEIVVRAAAESEIPLISAVGHETDTTLIDYAADVRAPTPTGAAEMAVPVRAELEAQLSGLAARLSGSVSRQMDNRRQGVRALVRALPSLDQLLALPRRRFDEAASGLGRGLELTTLNKRRAFERSASGLRPETLLNGLKHHRQRITERMHRAETLVEREGHHHHHH”, “soluble”. As to “MRIWNRIRCISTIRKNPTCQDVKAPLVSSQVFDPDVWSWNSAPESSLDLPIDSSPNFSMPPATSSETEFAENEESTSSSDDKKKRSEVIEENRSDGHAPIKSALSILMRSLQKSSSMTTSLSDIDVTLFNFHSTKFAERLLNRNVSSVVIVESSHVFSKNAKKFASEFSNVSAYRADIYTLMGVGRKKTAQFPRKMMFADFGKNETPEQYENIHPLTLTSAESSSNSEHLHAKFRRPHLLGVLPTPTIQRTILDSMIQHVLLHHSGNDEDTIFRYGDTNLLTFLGSGILAQYTCSTDNRLNFLSHQHRRHSALFNKLFEVKMLQTRQSEDPETAEIPIGHPPTSFHPLLPTAKKITHEKKLSDVNLTNGLQYPVQILPQKHLKIGGNEVTTENGMGRMLVDYACFMTQIGRQPNAKAVDQVVRLLWPESALSIPADILGDHKIGQLPNDHLDVIFQHVHEELHNTSIAKTYCNELKIKRAI”, the “soluble on expression in E. coli” value is “not soluble”.

For “MKLKRYEVLADEITASIQAGTRRAGDRLPSVRQTSASRGLSATTVFKAYYLLEARGLIRARDRSGYYVVGKPKALPPELEAGAPAESRRVDVDVSDRVLHVLQLTMRRDVVPFGSAFPHPSLFPHARLARAMASSVAALDPWSSVDDLSAGNTRLRRAIALRYLADGVQVRTEDIVITNGALEALNLCLGAVTRPGDSVLIESPTFYSALQSLERLGLRAIEVPAHPREGIELDALARAIDTHRPAACWLMTNFQNPLGSLMPEDKKRALVELLAARDVPLIEDDVYSELYFGAQRPLPAKAYDESGIVMSCSSFSKSLAPGWRIGWVLGGRYADRILRGKLALSLSTSAPSQAALATYLEHGGYDRHLRQLRQTLEQQRNQVMEAIARHFPPGTRTTHPDGGYFLWVALPPQVDALAVHRAALSLGVSTAPGPIFSVQDRFRHCLRLNYGHPFDARAQDGLATLGKLIARQC”, the “soluble on expression in E. coli” value is reported as “not soluble”. Next, “MSITSPVSNTWAPTVKGPHGTQSKIDTKSLSPNLSRAELRKQVRLARRSLSTEVQAEASINACERMLKKLMAMNAQHVALYLTHDGELATAPLIAALWQRGIQTYLPRLHPFNAGQLLFLHYHADSPMQPNQYGILEPKLDVRSVMPIERLDVVVTPLVAFDIKGNRMGMGGGYYDRTLANWQDNGKPLPMGYAHDCQQVPSLPCEHWDVPLPAIITPSRVWEFLEHHHHHH”: “soluble”; “MSLAQLPSELLSLQLPLRIRIGDAQAFDLGPDPQVTMVIRDPTLLTEITHPSLDALGKAYVEKRLDIEGPISQVIGIGDALSEALGDPDGEASPVRESHDKATDAEAIHYHYDLSNDFYRLWLDPEMVYSCAYFETGREDLATAQLAKLRHLCRKLRLQPGEKLLDVGCGWGGLARLAAREFGVEVTGITLSKEQLALGQERVRAEGLEDRVTLKLLDYRDLPRDGRFDKVVSVGMFEHVGHANLGLYFQQLYDAVRPGGLVMNHGITSLYTDGRPVGKGAGDFIDRYVFPHGELPHLSLAVARMSEAGLEVVDVESLRLHYARTLDFWSANLEAKLKEAARLVPEETLRIWRLYLAGCAYGFKRGWINLHQILANRPHEDGSHELPWSRRDLYAEGHHHHHH”: “soluble”.
